From patent publication US20100098730A1

How the values were obtained:
[1] = biological target: human FcRn (heterodimer of an alpha chain and a β2-microglobulin subunit), soluble (human) (UniProt P55899); assay: SPR (BIAcore 3000), IgG injected over chip-coupled human FcRn, pH 6.0, 25 C; apparent (bivalent) KD estimated from the steady state curves of FIG. 1, Run 2
[2] = biological target: human FcRn (heterodimer of an alpha chain and a β2-microglobulin subunit), soluble (human) (UniProt P55899); assay: FcRn affinity at pH 6.0, as shown in FIG. 24 (BIAcore, human FcRn)
[3] = biological target: cynomolgus monkey FcRn (cyno alpha chain and cyno β2-microglobulin), soluble (cynomolgus monkey) (UniProt Q8SPV9); assay: SPR (BIAcore 3000), soluble cyno FcRn injected over chip-coupled IgG, pH 6.0, 25 C; monovalent KD (b) determined by fitting the steady state RU against concentration
[4] = biological target: human FcRn (heterodimer of an alpha chain and a β2-microglobulin subunit), soluble (human) (UniProt P55899); assay: SPR (BIAcore 3000), soluble human FcRn injected over chip-coupled IgG, pH 6.0, 25 C; monovalent KD (a) determined by ratio of koff to kon
[5] = biological target: cynomolgus monkey FcRn (cyno alpha chain and cyno β2-microglobulin), soluble (cynomolgus monkey) (UniProt Q8SPV9); assay: SPR (BIAcore 3000), soluble cyno FcRn injected over chip-coupled IgG, pH 6.0, 25 C; monovalent KD (a) determined by ratio of koff to kon
[6] = biological target: human FcRn (heterodimer of an alpha chain and a β2-microglobulin subunit), soluble (human) (UniProt P55899); assay: SPR (BIAcore 3000), soluble human FcRn injected over chip-coupled IgG, pH 6.0, 25 C; monovalent KD (b) determined by fitting the steady state RU against concentration
[7] = biological target: human FcRn (heterodimer of an alpha chain and a β2-microglobulin subunit), soluble (human) (UniProt P55899); assay: SPR, human FcRn; fold over wildtype, summarized from FIGS. 4 and 5
[8] = biological target: cynomolgus monkey FcRn (cyno alpha chain and cyno β2-microglobulin), soluble (cynomolgus monkey) (UniProt Q8SPV9); assay: SPR (BIAcore 3000), soluble cyno FcRn injected over chip-coupled IgG, pH 6.0, 25 C
[9] = biological target: human FcRn (heterodimer of an alpha chain and a β2-microglobulin subunit), soluble (human) (UniProt P55899); assay: SPR (BIAcore 3000), soluble human FcRn injected over chip-coupled IgG, pH 6.0, 25 C
[10] = biological target: human FcRn (heterodimer of an alpha chain and a β2-microglobulin subunit), soluble (human) (UniProt P55899); assay: SPR (BIAcore), soluble human FcRn injected over chip-coupled IgG, pH 6.0, 25 C, monovalent KD
[11] = biological target: human FcRn (heterodimer of an alpha chain and a β2-microglobulin subunit), soluble (human) (UniProt P55899); assay: SPR, soluble human FcRn injected over IgG-coupled chip, monovalent KD, pH 6.0, 25 C
[12] = biological target: human FcRn (heterodimer of an alpha chain and a β2-microglobulin subunit), soluble (human) (UniProt P55899); assay: SPR, bivalent IgG over human FcRn-coupled chip, steady state, apparent KD, pH 6.0, 25 C, second run (about two fold higher RU of FcRn)
[13] = biological target: human FcRn (heterodimer of an alpha chain and a β2-microglobulin subunit), soluble (human) (UniProt P55899); assay: SPR (BIAcore 3000), IgG injected over chip-coupled human FcRn, pH 6.0, 25 C; apparent (bivalent) KD estimated from the steady state curves of FIG. 1, Run 1

Sequence of UniProt Q8SPV9 (Q8SPV9 24-297 limits assumed, chain 1 of 2): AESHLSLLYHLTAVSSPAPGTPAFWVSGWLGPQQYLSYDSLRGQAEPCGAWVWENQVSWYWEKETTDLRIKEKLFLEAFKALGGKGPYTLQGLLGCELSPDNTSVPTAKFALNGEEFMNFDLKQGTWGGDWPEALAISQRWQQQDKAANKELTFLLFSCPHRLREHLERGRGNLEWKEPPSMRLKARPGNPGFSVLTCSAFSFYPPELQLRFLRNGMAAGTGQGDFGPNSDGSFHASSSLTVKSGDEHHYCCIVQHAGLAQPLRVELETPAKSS
Sequence of UniProt Q8SPV9 (Q8SPW0 21-119 limits assumed, chain 2 of 2, further chain): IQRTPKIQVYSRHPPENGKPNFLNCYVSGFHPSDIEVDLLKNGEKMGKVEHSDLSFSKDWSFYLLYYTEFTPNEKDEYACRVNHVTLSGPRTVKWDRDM
Sequence of UniProt P55899 (P55899 24-297 limits assumed, chain 1 of 2): as the sequence (Q8SPV9 24-297 limits assumed, chain 1 of 2) above, with D39N, Q44E, S99G, G189S, N190S, M217L, T269S counted along it
Sequence of UniProt P55899 (P61769 21-119 limits assumed, chain 2 of 2, further chain): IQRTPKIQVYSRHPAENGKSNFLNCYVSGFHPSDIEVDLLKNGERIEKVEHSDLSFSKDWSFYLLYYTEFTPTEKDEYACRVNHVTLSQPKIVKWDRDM

Substance: anti-VEGF (Bevacizumab) IgG1 variant A378V (antibody)
- Kd [1]: 500 nM

Substance: IgG1 variant N434A of a different human antibody
- fold higher FcRn affinity at pH 6.0 compared to the wildtype antibody [2]: 3 fold

Substance: anti-VEGF (Bevacizumab) IgG1 variant T307Q/E380A/N434S (antibody)
- Kd [3]: 160 nM
- Kd [4]: 146 nM
- Kd [5]: 153 nM
- Kd [6]: 148 nM

Substance: anti-VEGF (Bevacizumab) IgG1 variant N434H (antibody)
- Kd [3]: 470 nM
- Kd [4]: 420 nM
- Bivalent Affinity Fold increase at pH 6.0 [7]: 9 fold
- Bivalent Affinity Fold increase at pH 7.4 [7]: 6 fold
- Monovalent Affinity Fold increase at pH 6.0 [7]: 3 fold
- koff [8]: 0.218 s⁻¹
- kon [8]: 480000 M⁻¹ s⁻¹
- Kd [5]: 450 nM
- Kd [1]: 100 nM
- koff [9]: 0.166 s⁻¹
- kon [9]: 400000 M⁻¹ s⁻¹
- Kd [6]: 470 nM

Substance: N434W (antibody)
- Kd [10]: 44 nM

Substance: anti-VEGF (Bevacizumab) IgG1 variant T307Q (antibody)
- Kd [1]: 250 nM

Substance: N434A (antibody)
- Kd [10]: 570 nM

Substance: anti-VEGF (Bevacizumab) IgG1 variant T307Q/A378V/Y436I (antibody)
- Kd [1]: 30 nM

Substance: anti-HER2 (trastuzumab) IgG1 variant M252Y/V308P/N434Y (antibody)
- fold improvement of affinity over the wild-type IgG1 [11]: 450 fold
- Kd [10]: 3.7 nM

Substance: anti-VEGF (Bevacizumab) IgG1 variant T307Q/Y436I (antibody)
- Kd [1]: 70 nM

Substance: anti-VEGF (Bevacizumab) IgG1 variant N434A (antibody)
- Kd [12]: 250 nM

Substance: anti-VEGF (Bevacizumab) IgG1 variant T307Q/A378V (antibody)
- Kd [1]: 90 nM

Substance: anti-VEGF (Bevacizumab) IgG1 variant T307Q/N434A (antibody)
- Kd [3]: 241 nM
- Kd [4]: 240 nM
- Kd [13]: 180 nM
- Kd [5]: 240 nM
- Kd [6]: 258 nM

Substance: anti-VEGF (Bevacizumab) IgG1 variant V308P/N434A (antibody)
- Kd [3]: 69.9 nM
- Kd [4]: 72 nM
- Kd [5]: 66.6 nM
- Kd [1]: 8 nM
- Kd [6]: 76 nM
